A protein production outcome set (Wang et al. 2014)

Test: label from the status in PepcDB records

Row | Sequence | protein production
1 | LLLLHGFTSHPVLTLGPLSERLKEAGWEVRQPALPGHGTRPEDLLKVRFQDWLLAAEEAYLELPEPRGVVGLSMGGLLAAHLAARHPTKALVALAPAFALKNPLAPYLHWLIPRFPGPPSIEDPELRKRNPNYPYFPTRAVLELLALMRKTPEVLPRVKARALVVEAGKDRVVKGVDRYFALLGSPRKDHLVFPESGHDLLLDRDREEVARAVRDWL | failed
2 | LLTRQLEKSRQQQQLMVAIALIIRQSLKLEDILSVTVAEVRQFLQADRVLIYQFQPDMSGIVVAESILPGWIATKGAQIEDKCFQDSAGHNHQLKKRAINDIYQAGLTNCYLELLEQFQVKATLIVPIMVTNKSWGLLIAHQCAAPHHWQSFELDLLEQLAVQIAIAIQQASAYEQIQTELQERKRVEATLRESEQRFRQMADTAPVLIWMSGL | failed
3 | LPKLREDFKMQNKSVFILGASGETGKVLLKEILGQNLFSKVTLIGRRKLTFEEEAYKNVNQEVVDFEKLDVYASAFQGHDVGFCCLGTTRSKAGAEGFVRVDRDYVLKSAELAKAGGCKHFNLLSSRGADKSSSFLYLQVKGEVEAKVEELKFDRLSVFRPGVLLCDRQESRPGEWLARKFFGSLPDSWASGYAVPVVTVVRAMLNNLVSPSSGQMELLENKAILHLGKDRDVPKL | not failed
4 | LPKPGVYYFPWEVSDGHVPEGSTLRTFGRLYLYDMARSLMTLAAPQKPDQCQLLVCTNLVEPFEAHVNFLYMVLGDLERMEGGAFVVRARLLTCVEGMDLSLLEKAILEQRRHLQKRQQPIGDASTLQTPTPAPQSIPSDSLSLEPENRG | failed
5 | LRETEARLQRLADNLPGMLYEFCLKPDGTMTFPYVSSGCLELIECSPQELQDDASLTFASTYPEDIIGLQEAIANSAKTLQNFEHEWRIITSSGQLKWVKGASRPERKPGGEITWYGYLLDVSEQQAALRERKQADQQ | not failed
6 | LRGMLPGSKLCEKKIVLSPSANMAAELKSEGKLFMLKRLRLADLEPMAIETSLLPINRFPSLENRNFENESLYEILEEEYNIKMTKAQQKIEVRMPTPQESELLDINYTIPVFHFKQVTFDQNDTIFEVAHSVYRGDRYEIETEIYR | failed
7 | LRKQVEELFERKYAQAIKAKGPVTIPYPLFQSHVEDLYVEGLPEGIPFRRPSTYGIPRLERILLAKERIRFVIKKHELLNSTREDL | not failed
8 | LRRGHLKLQRDGQIIGHTPEEWEQIFREVWPEYEIEPNPLPGYAPFDIGMWLTVEAPAYAVWIDPEDGSEYWAG | failed
9 | LRSRRKPSSRIGRRPSTTQDRISTVGIELFTEQGFDATSVDEVAEASGIARRTLFRYFPSKNAIPWGDFDAHLAEMRAQLAAQPDDIPIVDGLTAALLQFNAFPASEEINHRKRMGLILRVPALQAYSVVMYEGWRNVIAEYVASRLGTSPTDHVPRTVGYLLLGVAMSAYEQWLDDDSLELNELLASGMQSLYDGLSSLGEPDTRT | not failed
10 | LSPQVRTAHIGDVPVLVRLMSEFYQEAGFALPHDAAIRAFKALLGKPDLGRIWLIAEGTESVGYIVLTLGFSMEYGGLRGFVDDFFVRPNARGKGLGAAALQTVKQGCCDLGVRALLVETGPEDHPARGVYSRAGFEESGRMLLGQALAPPIHEA | not failed
11 | LSQAEQDKLDAAVFRQLLQHLDQHKEVQNIDLMILADFCRNCLCKWYAAEAEKQGLDLNIDDARERVYGMTYDEWKANHQPPATPEQLAAFEAKTKSK | failed
12 | LSRVGSAEWNLLTDEATWSGELYQILGRDPAAPPLTLDELPSFVHDEDRPRLTAMVTDCLIDAKPIDGEFRIVRPDGGVRTVHMMGEPVLDAHGSTASMWAVLRDVSE | not failed
13 | LTAIEARVIGCLIEKEVTTPDQYPLSLNALTNASNQKSNREPVMALSESDVLDAVDALIERRLVSDESAFNSRVSKYQHRFCNTEFGDLKLSEQEKGIICCMLLRGAQTPGEIRTRTNRLATFHDVKEVEAVLEHLASEEKGPLVVKLPREAGKRESRYMHLFCGEVDVSAMAAAVPAT | failed
14 | LTESEERWRLALDAANLGFWDWNVLTAKVVWSENHERLFGLVSGSFDGTYETFLSCVHPEDRESVIQVIGVCLENKTDYYDEFRIVWPDKSIHWIAAKGRFFYNDQGQPVRMIGVCMDITKSKRTEEN | failed
15 | LTSSNALRGDAHSRLAAHRGLLERTSRTTRVAGILRDAIIDGTFRPGARLSEPDICAALDVSRNTVREAFQILIEDRLVAHELNRGVFVRVPTAEDITELYICRRVVECAGVNGFDPATGDLSRVAEALDLADERYAVEDWTGVGTADIHFHSALASLNNSNRIDELMRSVWNEARLVFHVMDDAHRFHGPYLTRNHEIYDALAAGNTEAAGQLLKTYLEDAEAQILGAYRPVSG | not failed
16 | MAAADAEAVPARGEPQQDCCVKTELLGEETPMAADEGSAEKQAGEAHMAADGETNGSCENSDASSHANAAKHTQDSARVNPQDGTNTLTRIAENGVSERDSEAAKQNHVTADDFVQTSVIGSNGYILNKPALQAQPLRTTSTLASSLPGHAAKTLPGGAGKGRTPSAFPQTPAAPPATLGEGSADTEDRKLPAPGADVKVHRARKTMPKSVVGLHAASKDPREVREARDHKEPKEEINKNISDFGRQQLLPPFPSLHQSLPQNQCYMATTKSQTACLPFVLAAAVSRKKKRRMGTYSLVPKKKTKVLKQRTVIEMFKSITHSTVGSKGEKDLGASSLHVNGESLEMDSDEDDSEELEEDDGHGAEQAAAFPTEDSRTSKESMSEADRAQKMDGESEEEQESVDTGEEEEGGDESDLSSESSIKKKFLKRKGKTDSPWIKPARKRRRRSRKKPSGALGSESYKSSAGSAEQTAPGDSTGYMEVSLDSLDLRVKGILSSQAEGLANGPDVLETDGLQEVPLCSCRMETPKSREITTLANNQCMATESVDHELGRCTNSVVKYELMRPSNKAPLLVLCEDHRGRMVKHQCCPGCGYFCTAGNFMECQPESSISHRFHKDCASRVNNASYCPHCGEESSKAKEVTIAKADTTSTVTPVPGQEKGSALEGRADTTTGSAAGPPLSEDDKLQGAASHVPEGFDPTGPAGLGRPTPGLSQGPGKETLESALIALDSEKPKKLRFHPKQLYFSARQGELQKVLLMLVDGIDPNFKMEHQNKRSPLHAAAEAGHVDICHMLVQAGANIDTCSEDQRTPLMEAAENNHLEAVKYLIKAGALVDPKDAEGSTCLHLAAKKGHYEVVQYLLSNGQMDVNCQDDGGWTPMIWATEYKHVDLVKLLLSKGSDINIRDNEENICLHWAAFSGCVDIAEILLAAKCDLHAVNIHGDSPLHIAARENRYDCVVLFLSRDSDVTLKNKEGETPLQCASLNSQVWSALQMSKALQDSAPDRPSPVERIVSRDIARGYERIPIPCVNAVDSEPCPSNYKYVSQNCVTSPMNIDRNITHLQYCVCIDDCSSSNCMCGQLSMRCWYDKDGRLLPEFNMAEPPLIFECNHACSCWRNCRNRVVQNGLRARLQLYRTRDMGWGVRSLQDIPPGTFVCEYVGELISDSEADVREEDSYLFDLDNKDGEVYCIDARFYGNVSRFINHHCEPNLVPVRVFMAHQDLRFPRIAFFSTRLIEAGEQLGFDYGERFWDIKGKLFSCRCGSPKCRHSSAALAQRQASAAQEAQEDGLPDTSSAAAADPL | failed
17 | MAAAFASLPTFSVVNSSRFPRRRIGFSCSKKPLEVRCSSGNTRYTKQRGAFTSLKECAISLALSVGLMVSVPSIALPPNAHAVANPVIPDVSVLISGPPIKDPEALLRYALPIDNKAIREVQKPLEDITDSLKIAGVKALDSVERNVRQASRTLQQGKSIIVAGFAESKKDHGNEMIEKLEAGMQDMLKIVEDRKRDAVAPKQKEILKYVGGIEEDMVDGFPYEVPEEYRNMPLLKGRASVDMKVKIKDNPNIEDCVFRIVLDGYNAPVTAGNFVDLVERHFYDGMEIQRSDGFVVQTGDPEGPAEGFIDPSTEKTRTVPLEIMVTGEKTPFYGSTLEELGLYKAQVVIPFNAFGTMAMAREEFENDSGSSQVFWLLKESELTPSNSNILDGRYAVFGYVTDNEDFLADLKVGDVIESIQVVSGLENLANPSYKIAG | failed
18 | MAAARDQLQMAADVARLGIWRWNLADDSLQWNERMCEMYGQPLALRDGGLVYEHWRSRLHPEDLERTEASLRAAVEGRGNYDVIFRVVLPDGGIRFIQAGAQVERDADGNPLQVTGINIDITSDQQLQARLREAKEQADAASAAKSSFLANMSHEIRTPMNAVLGML | failed
19 | MAADESYPSVKERAFFQGLPFDYAVVFDNALIDRLFSRLRQERALVEDGLLARPDHRPWRLGALITEADTLDRRLSEQIRCLSGQSLPVASIALVTATTEAREAVSLWASVTCPPNVVVTPDPRAWMAEADLDLVVVFAPGALAHPGLFAALGRALQRDGADFAVWNHLLVRRRAEAPGQDITYLRCPDPTRQPVALAHMEAAGPAWAATPRLFETIKGDLGKALIGMARHPLSIALLRGKPKVVRLNEFLGACRVDSLGTPPWPRQSALVEAYGAALEDETFRLEIDPAHPTQPIRLTPRRRAHSIDIVINFRDKPELTLAAMGSIYAQTTTARVSLFLIDNQSTPAARAAIDAEAARAPAGIAVRVLSYDRPFNHSAQTNLGAAAGNGEALVFMSNDCALVDPGALDEMAAWALAPGVGTVGVRLETAEGRLACSGICALYPDHDFHPIVAEGFDQLGAGLNRETFANTFACACLARAVFRQAGPLDAIGFPIGLNDVDYCLRLRERGLRHLYLGAFLARHQALGSRPASDDGAQSAFLRQTYGHLLFDKEYMLEYDFLRQFTAAKLRQDIRSQRDKTTTVLEHHHHHH | failed
20 | MAAEIHSRPQSSRPVLLSKIEGHQDAVTAALLIPKEDGVITASQDNGAVMEFHVSEDFNKMNFIKTYPAHQNRVSAIIFSLATEWVISTGHDKCVSWMCTRSGNMLGRHFFTSWASCLQYDFDTQYAFVGDYSGQITLLKLEQNTCSVITTLKGHEGSVACLWWDPIQRLLFSGASDNSIIMWDIGGRKGRTLLLQGHHDKVQSLCYLQLTRQLVSCSSDGGIAVWNMDVSREEAPQWLESDSCQKCEQPFFWNIKQMWDTKTLGLRQHHCRKCGQAVCGKCSSKRSSYPVMGFEFQVRVCDSCYDSIKDEDRTSLATFHEGKHNISHMSMDIARGLMVTCGTDRIVKIWDMTPVVGCSLATGFSPH | failed
21 | MAAIPALDPEAEPSMDVILVGSSELSSSVSPGTGRDLIAYEVKANQRNIEDICICCGSLQVHTQHPLFEGGICAPCKDKFLDALFLYDDDGYQSYCSICCSGETLLICGNPDCTRCYCFECVDSLVGPGTSGKVHAMSNWVCYLCLPSSRSGLLQRRRKWRSQLKAFYDRESENPLEMFETVPVWRRQPVRVLSLFEDIKKELTSLGFLESGSDPGQLKHVVDVTDTVRKDVEEWGPFDLVYGATPPLGHTCDRPPSWYLFQFHRLLQYARPKPGSPRPFFWMFVDNLVLNKEDLDVASRFLEMEPVTIPDVHGGSLQNAVRVWSNIPAIRSSRHWALVSEEELSLLAQNKQSSKLAAKWPTKLVKNCFLPLREYFKYFSTELTSSL | failed
22 | MAAITTGVVLLRWQLLSAVLMFLASTLNIRFRKSDYIGLAVISSGLGVVSACWFATGLLGITMMDLAAIWHNIEAVMVETMSQTPPEWPMVLT | failed
23 | MAAKLEKTTNSFEVITREWYAKFSPTWNESHGERIIRRFERDIFPWIGSKPISEIAAPELLATVRRIESRGAVETAHRALGNCGQVFRYAIATARATRDISADLRGALPPVKGEHLEHHHHHH | not failed
24 | MAAKQGESDPERKETRQKVDDDRKHEIEAAIVRIMKSRKKMQHNVLVAEVTQQLKARFLPSPVVIKKRIEGLIEREYLARTPEDRKVYTYVA | not failed
25 | MAAPEAEVLSSAAVPDLEWYEKSEETHASQIELLETSSTQEPLNASEAFCPRDCMVPVVFPGPVSQEGCCQFTCELLKHIMYQRQQLPLPYEQLKHFYRKPSPQAEEMLKKKPRATTEVSSRKCQQALAELESVLSHLEDFFARTLVPRVLILLGGNALSPKEFYELDLSLLAPYSVDQSLSTAACLRRLFRAIFMADAFSELQAPPLMGTVVMAQGHRNCGEDWFRPKLNYRVPSRGHKLTVTLSCGRPSIRTTAWEDYIWFQAPVTFKGFRE | not failed
